Laboratory results as given in patent US20250263462A1 (US Dept. of Health and Human Services, published 2025).
Read-outs that look alike come from different tables or passages of the source.

What was measured:
Test in all cases: cell-based or functional assay
[1] = target: T1, WT KRAS 10-mer peptide (SEQ ID NO: 30) presented by HLA-A11 on pulsed cells (human, UniProt A*11:01)
[2] = target: T2, KRAS G12D 10-mer peptide … (SEQ ID NO: 2) presented by HLA-A11 on pulsed cells (human, UniProt A*11:01)
[3] = target: HLA-A11 on COS7/A11 cells expressing the KRAS G12V minigene (23-mer SEQ ID NO: 120) (human, UniProt A*11:01)
[4] = target: HLA-A11 on COS7/A11 cells expressing the KRAS G12D minigene (23-mer SEQ ID NO: 119) (human, UniProt A*11:01)
[5] = target: HLA-A11 on COS7/A11 cells expressing the WT KRAS minigene (23-mer SEQ ID NO: 118) (human, UniProt A*11:01)
[6] = target: T1, WT KRAS 10-mer peptide (SEQ ID NO: 30) …; remark: listed apart in the source
[7] = target: T2, KRAS G12D 10-mer peptide … (SEQ ID NO: …); remark: listed apart in the source
[8] = target: T3, KRAS G12D 9-mer peptide KRAS8-16 … (SEQ ID NO: 34) presented by HLA-A11 on pulsed cells (human, UniProt A*11:01)
[9] = target: T1, WT KRAS 10-mer peptide (SEQ ID NO: 30) …; remark: listed apart in the source
[10] = target: T2, KRAS G12D 10-mer peptide … (SEQ ID NO: …); remark: listed apart in the source
[11] = target: KRAS G12V 9-mer peptide … (SEQ ID NO: 35) presented by HLA-A11 on pulsed cells (human, UniProt A*11:01)
[12] = target: T3, KRAS G12D 9-mer peptide KRAS8-16 … (SEQ …); remark: listed apart in the source

B1: TRAV3-3*01/TRBV4*01 murine anti-KRAS G12V TCR (SEQ ID NOs: 133 and 134) (TCR, V domains shown)
V domain 1: GEQVEQRPPHLSVREGDSAVITCTYTDPNSYYFFWYKQEPGASLQLLMKVFSSTEINEGQGFTVLLNKKDKRLSLNLTAAHPGDSAAYFCAVSGGTNSAGNKLTFGIGTRVLVRP
V domain 2: ETAVFQTPNYHVTQVGNEVSFNCKQTLGHDTMYWYKQDSKKLLKIMFSYNNKQLIVNETVPRRFSPQSSDKAHLNLRIKSVEPEDSAVYLCASSRDWGPAEQFFGPGTRLTVLE
- IFN-γ, PBL + pulsed Cos7/A11 [1]: 36 pg/mL
- IFN-γ, PBL + pulsed Cos7/A11 [2]: 39 pg/mL
- IFN-γ, PBL + Cos7/A11 minigene transfectant [3]: 11100 pg/mL
- IFN-γ, PBL + Cos7/A11 minigene transfectant [4]: 38 pg/mL
- IFN-γ, PBL + Cos7/A11 minigene transfectant [5]: 41 pg/mL
- IFN-γ, PBL + Cos7/A11 pulsed at 10^-6 (10^× µM) [6]: 50 pg/mL
- IFN-γ, PBL + Cos7/A11 pulsed at 10^-7 (10^× µM) [6]: 42 pg/mL
- IFN-γ, PBL + Cos7/A11 pulsed at 10^-8 (10^× µM) [6]: 50 pg/mL
- IFN-γ, PBL + Cos7/A11 pulsed at 10^-9 (10^× µM) [6]: 50 pg/mL
- IFN-γ, PBL + Cos7/A11 pulsed at 10^-10 (10^× µM) [6]: 48 pg/mL
- IFN-γ, PBL + Cos7/A11 pulsed at 10^-11 (10^× µM) [6]: 55 pg/mL
- IFN-γ, PBL + Cos7/A11 pulsed at 10^-12 (10^× µM) [6]: 47 pg/mL
- IFN-γ, PBL + Cos7/A11 pulsed at 10^-13 (10^× µM) [6]: 68 pg/mL
- IFN-γ, PBL + Cos7/A11 pulsed at 10^-6 (10^× µM) [7]: 43 pg/mL
- IFN-γ, PBL + Cos7/A11 pulsed at 10^-7 (10^× µM) [7]: 40 pg/mL
- IFN-γ, PBL + Cos7/A11 pulsed at 10^-8 (10^× µM) [7]: 46 pg/mL
- IFN-γ, PBL + Cos7/A11 pulsed at 10^-9 (10^× µM) [7]: 41 pg/mL
- IFN-γ, PBL + Cos7/A11 pulsed at 10^-10 (10^× µM) [7]: 53 pg/mL
- IFN-γ, PBL + Cos7/A11 pulsed at 10^-11 (10^× µM) [7]: 43 pg/mL
- IFN-γ, PBL + Cos7/A11 pulsed at 10^-12 (10^× µM) [7]: 49 pg/mL
- IFN-γ, PBL + Cos7/A11 pulsed at 10^-13 (10^× µM) [7]: 49 pg/mL
- IFN-γ, PBL + Cos7/A11 pulsed at 10^-6 (10^× µM) [8]: 47 pg/mL
- IFN-γ, PBL + Cos7/A11 pulsed at 10^-7 (10^× µM) [8]: 48 pg/mL
- IFN-γ, PBL + Cos7/A11 pulsed at 10^-8 (10^× µM) [8]: 49 pg/mL
- IFN-γ, PBL + Cos7/A11 pulsed at 10^-9 (10^× µM) [8]: 44 pg/mL
- IFN-γ, PBL + Cos7/A11 pulsed at 10^-10 (10^× µM) [8]: 52 pg/mL
- IFN-γ, PBL + Cos7/A11 pulsed at 10^-11 (10^× µM) [8]: 49 pg/mL
- IFN-γ, PBL + Cos7/A11 pulsed at 10^-12 (10^× µM) [8]: 55 pg/mL
- IFN-γ, PBL + Cos7/A11 pulsed at 10^-13 (10^× µM) [8]: 52 pg/mL

B2: TRAV19*01/TRBV13-1*02 murine anti-KRAS G12V TCR (SEQ ID NOs: 145 and 146) (TCR, V domains shown)
V domain 1: GQQVKQSSPSLTVQEGGILILNCDYENDMFDYFAWYKKYPDNSPTLLISVRSNVDKREDGRFTVFLNKSGKHFSLHITASQPEDTAVYLCAAGDSGGSNYKLTFGKGTLLTVTP
V domain 2: EAAVTQSPRNKVTVTGGNVTLSCRQTNSHNYMYWYRQDTGHGLRLIHYSYGAGNLQIGDVPDGYKATRTTQEDFFLLLELASPSQTSLYFCASASWGGYAEQFFGPGTRLTVLE
- IFN-γ, PBL + pulsed Cos7/A11 [1]: 90 pg/mL
- IFN-γ, PBL + pulsed Cos7/A11 [2]: 94 pg/mL
- IFN-γ, PBL + Cos7/A11 minigene transfectant [3]: 18100 pg/mL
- IFN-γ, PBL + Cos7/A11 minigene transfectant [4]: 81 pg/mL
- IFN-γ, PBL + Cos7/A11 minigene transfectant [5]: 92 pg/mL
- IFN-γ, PBL + Cos7/A11 pulsed at 10^-6 (10^× µM) [9]: 57 pg/mL
- IFN-γ, PBL + Cos7/A11 pulsed at 10^-7 (10^× µM) [9]: 56 pg/mL
- IFN-γ, PBL + Cos7/A11 pulsed at 10^-8 (10^× µM) [9]: 57 pg/mL
- IFN-γ, PBL + Cos7/A11 pulsed at 10^-9 (10^× µM) [9]: 49 pg/mL
- IFN-γ, PBL + Cos7/A11 pulsed at 10^-10 (10^× µM) [9]: 57 pg/mL
- IFN-γ, PBL + Cos7/A11 pulsed at 10^-11 (10^× µM) [9]: 65 pg/mL
- IFN-γ, PBL + Cos7/A11 pulsed at 10^-12 (10^× µM) [9]: 67 pg/mL
- IFN-γ, PBL + Cos7/A11 pulsed at 10^-13 (10^× µM) [9]: 70 pg/mL
- IFN-γ, PBL + Cos7/A11 pulsed at 10^-6 (10^× µM) [10]: 61 pg/mL
- IFN-γ, PBL + Cos7/A11 pulsed at 10^-7 (10^× µM) [10]: 50 pg/mL
- IFN-γ, PBL + Cos7/A11 pulsed at 10^-8 (10^× µM) [10]: 49 pg/mL
- IFN-γ, PBL + Cos7/A11 pulsed at 10^-9 (10^× µM) [10]: 59 pg/mL
- IFN-γ, PBL + Cos7/A11 pulsed at 10^-10 (10^× µM) [10]: 52 pg/mL
- IFN-γ, PBL + Cos7/A11 pulsed at 10^-11 (10^× µM) [10]: 64 pg/mL
- IFN-γ, PBL + Cos7/A11 pulsed at 10^-12 (10^× µM) [10]: 62 pg/mL
- IFN-γ, PBL + Cos7/A11 pulsed at 10^-13 (10^× µM) [10]: 63 pg/mL
- IFN-γ, PBL + Cos7/A11 pulsed at 10^-6 (10^× µM) [11]: 112 pg/mL
- IFN-γ, PBL + Cos7/A11 pulsed at 10^-7 (10^× µM) [11]: 70 pg/mL
- IFN-γ, PBL + Cos7/A11 pulsed at 10^-8 (10^× µM) [11]: 52 pg/mL
- IFN-γ, PBL + Cos7/A11 pulsed at 10^-9 (10^× µM) [11]: 55 pg/mL
- IFN-γ, PBL + Cos7/A11 pulsed at 10^-10 (10^× µM) [11]: 64 pg/mL
- IFN-γ, PBL + Cos7/A11 pulsed at 10^-11 (10^× µM) [11]: 62 pg/mL
- IFN-γ, PBL + Cos7/A11 pulsed at 10^-12 (10^× µM) [11]: 66 pg/mL
- IFN-γ, PBL + Cos7/A11 pulsed at 10^-13 (10^× µM) [11]: 64 pg/mL
- IFN-γ, PBL + Cos7/A11 pulsed at 10^-6 (10^× µM) [12]: 63 pg/mL
- IFN-γ, PBL + Cos7/A11 pulsed at 10^-7 (10^× µM) [12]: 57 pg/mL
- IFN-γ, PBL + Cos7/A11 pulsed at 10^-8 (10^× µM) [12]: 48 pg/mL
- IFN-γ, PBL + Cos7/A11 pulsed at 10^-9 (10^× µM) [12]: 54 pg/mL
- IFN-γ, PBL + Cos7/A11 pulsed at 10^-10 (10^× µM) [12]: 62 pg/mL
- IFN-γ, PBL + Cos7/A11 pulsed at 10^-11 (10^× µM) [12]: 52 pg/mL
- IFN-γ, PBL + Cos7/A11 pulsed at 10^-12 (10^× µM) [12]: 57 pg/mL
- IFN-γ, PBL + Cos7/A11 pulsed at 10^-13 (10^× µM) [12]: 70 pg/mL
